Test results: publication PMC2710508

Key:
[1] = molecular target: F-actin from chicken pectoral skeletal muscle (chicken) (UniProt P68139); test: co-sedimentation; tropomyosin 0.1–10 µM with 0.12–12 µM troponin T 70–170 (1.2× molar excess) and 5 µM F-actin, 20°C, 250 mM NaCl, 10 mM TrisHCl pH 7.5, 2 mM MgCl2, 0.5 mM DTT; pellets and supernatants by SDS-PAGE and densitometry; apparent constant (Kapp) and Hill coefficient from a fit to the Hill equation
[2] = molecular target: F-actin from chicken pectoral skeletal muscle (chicken) (UniProt P68139); test: differential scanning calorimetry; tropomyosin 15 µM and TnT 70–170 18 µM with phalloidin (36 µM) stabilized F-actin (24 µM), 100 mM NaCl, 10 mM Hepes pH 7.0, 2 mM MgCl2, 1 mM DTT; three heating scans at 1°C/min; peak of unfolding/dissociation of actin-bound tropomyosin
F-actin = F-actin (UniProt P68133); test: given as Ka; settings: cited from earlier work

Row | Ka [1] | DSC TM of dissociation from F-actin (TM3) [2] | DSC ΔΔH (with minus without F-actin) [2] | Substance | association constant (Ka) (F-actin)
1 | 1.33e+06 M⁻¹ | 37.6 °C | 37.6 kcal/mol | P5→P3 tropomyosin (residues 165–188 of P5 replace residues 88–111 of P3) (from UniProt P04692 1-284) (natural protein) | –
2 | – | – | – | tropomyosin (from UniProt P09493) | 400 µM
